Where a chain is given by its changes, count along the chain named. In names and notes the source's numbering stands.
B1: IL-23 mutant D265A (ligand)
chain: IWELKKDVYVVELDWYPDAPGEMVVLTCDTPEEDGITWTLDQSSEVLGSGKTLTIQVKEFGDAGQYTCHKGGEVLSHSLLLLHKKEDGIWSTDILKDQKEPKNKTFLRCEAKNYSGRFTCWWLTTISTDLTFSVKSSRGSSDPQGVTCGAATLSAERVRGDNKEYEYSVECQEDSACPAAEESLPIEVMVDAVHKLKYENYTSSFFIRDIIKPDPPKNLQLKPLKNSRQVEVSWEYPDTWSTPHSYFSLTFCVQVQGKSKREKKARVFTDKTSATVICRKNASISVRAQDRYYSSSWSEWASVPCSGSGSSRGGSGSGGSGGGGSKLRAVPGGSSPAWTQCQQLSQKLCTLAWSAHPLVGHMDLREEGDEETTNDVPHIQCGDGCDPQGLRDNSQFCLQRIHQGLIFYEKLLGSDIFTGEPSLLPDSPVGQLHASLLGLSQLLQPEGHHWETQQIPSLSPSQPWQRLLLRFKILRSLQAFVAVAARVFAHGAATLSP
B2: IL-23 mutant R266A (ligand)
chain: B1 chain with A265D, R266A

What was measured:
IL-12Rβ1/Fc Chimera = molecular target: T1, IL-12Rβ1/Fc Chimera (human, UniProt P42701 25-545); test: ELISA, IL-12Rβ1 coated
T1 construct: not shown: Fc of the bought R&D Systems chimera
Protocol: (§1) The plate was then washed three times with wash buffer. The wells were then blocked by adding 200 μl of blocking buffer to each well and incubating the plate at 25° C. for 1 hour. The supernatant was diluted in antibody diluent sufficient to generate a titration curve and 100 µl was added to wells then incubated for 1 hour at 25° C. The plate was then washed as previously described and 100 μl of Monoclonal Anti-FLAG® M2-HRP (Sigma-Aldrich®) at 1:1000 in antibody diluent was used to detect bound cytokine. After incubation at 25° C. for 1 hour the plate was washed again as previously described. 100 μl TMB substrate solution (Sigma-Aldrich®) was added to each well and the colour allowed to develop for 5 minutes. 100 μl of 1M HCl was added to terminate the colour development reaction and absorbance was determined at 450 nm (ref. 620 nm).

[1] = molecular target: T2, IL-23R extracellular domain (human, UniProt Q5VWK5 24-355); test: ELISA, IL-23R coated
T2 construct: Methods print IL-23/Fc Chimera for the coated receptor; also called IL-23R-HIS; IL-23/Fc Chimera (so in the source); not shown: Fc (R&D Systems chimera) or HIS tag (in-house IL-23R-HIS)
T2 sequence: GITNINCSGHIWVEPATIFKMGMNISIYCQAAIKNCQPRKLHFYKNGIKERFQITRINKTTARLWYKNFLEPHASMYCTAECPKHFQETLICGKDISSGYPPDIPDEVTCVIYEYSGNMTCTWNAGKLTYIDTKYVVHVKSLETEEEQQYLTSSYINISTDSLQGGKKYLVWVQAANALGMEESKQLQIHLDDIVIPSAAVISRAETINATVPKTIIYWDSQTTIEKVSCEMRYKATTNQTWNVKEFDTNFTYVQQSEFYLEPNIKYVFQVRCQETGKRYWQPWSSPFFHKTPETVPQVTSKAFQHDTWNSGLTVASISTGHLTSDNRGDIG
Protocol: as §1

Binder | binding result (IL-12Rβ1/Fc Chimera) | binding result [1]
B1 | binds | binds
B2 | binds | binds

Reference: patent US20110262445A1 (CEPHALON AUSTRALIA, published 2011)
